Key:
[1] = test system: spinal cord injury in Long Evans rats; assay: Spinal cord injury (dorsal hemisection), intrathecal mini-osmotic pump; format: in vivo, rat
Experimental: Spinal cord injury was induced in adult female Long Evans rats (190-210 g; Charles River). A dorsal hemisection was performed at T6/T7, completely interrupting the main dorsomedial and the minor dorsolateral corticospinal tract (CST) components. The cord was sterotaxically transected at a depth of 1.8 mm from the surface using a microscalpel. […] Postoperative care comprised analgesia (Buprenorphine/Buprenex, Reckitt Benckiset Healthcare Ltd., 0.05 mg/kg subcutaneously) every 8-12 hours for 3 days and antibiotic treatment (ampicillin, Bristol Myers Squibb, 100 mg/kg subcutaneously twice daily) for 7 days after surgery. Bladders were expressed manually twice a day for the duration of the study (4 weeks) or until return of function. On completion of the study, rats were anesthetized and trans-cardially perfused with heparinized saline followed by 4% paraformaldehyde (PFA). The spinal cords were removed, embedded in paraffin, and 10 μm sections were cut from for histological analysis.
To quantify apoptotic cell death after SCI, animals were euthanized 3 or 7 days after SCI and stained using anti-activated-Caspase-3 antibody (Cell Signaling Technologies) and TUNEL staining (Promega). The sections were also stained with anti-NeuN antibody (Chemicon) and anti-CC1 antibody (Calbiochem) to identify neurons and oligodendrocytes, respectively.

[2] = test system: RhoA-GTP; assay: RhoA-GTP levels in oligodendrocyte lysates (western blotting); format: cell-based, rat; conditions: versus corresponding control, FIG. 9A
Excerpt: A strong candidate signaling pathway that is implicated in the control of oligodendrocyte differentiation is the Rho family of GTPases. Rho GTPases regulate cellular morphology, and reduced RhoA-GTP amounts are required for oligodendrocyte differentiation. See Liang, X, et al., J. Neurosci. 24:7140-7149 (2004). To determine whether Sp35 signals through the RhoA pathway, RhoAGTP levels in cell lysates of oligodendrocytes treated with Sp35-Fc were compared with levels in the corresponding control via western blotting.

[3] = target: T1, human ErbB2 (Homo sapiens, UniProt P04626); assay: AP-Sp35 binding to ErbB2-transfected CHO cells; conditions: pre-incubation with soluble fusion protein, FIG. 17B
T1 construct: expressed in transfected cells; host or cells: CHO cells, transient transfection with Fugene 6, assayed after 48 hours
Experimental: ErbB2 is a member of the type I family of transmembrane receptor tyrosine kinases. The family comprises four members: epidermal growth factor receptor (EGFR or ErbB1), ErB2 (HER2 or neu), ErbB3 and ErbB4. Oligodendrocyte differentiation is positively regulated by the ErbB2 receptor tyrosine kinase. To examine the potential interaction between Sp35 and ErB2, an N-terminal AP-tagged human Sp35 protein was tested for binding to human ErbB2-transfected Chinese hamster ovary (CHO) cells.
90% confluent CHO cells were transfected with various combinations of human ErbB2 vector expression plasmid using Fugene 6 reagents (Roche). After 48 hours, the transfected cells were washed with HBH (Hank's balanced salt solution, 1 mg/ml BSA, 20 mM HEPES (pH 7.0)) and incubated for 1.5 hours at 23° C. or […] with 4 μg/ml of AP-Sp35 (human placental alkaline phosphotase (AP) with an N-terminal six histidine tag, fused to the C-terminus of human Sp35 (residues 34-532), as described in Mi et al., Nat. Neurosci. 7:221-228 (2004)) or control AP-protein in HBH. Bound AP-Sp35 was detected directly or following detergent lysis of the cells by ELISA and enzymatic activity was quantified with 4-NPP as described in Mi et al. Nat. Neurosci. 7:221-228 (2004).
In order to identify the Sp35 domain that binds ErbB2, soluble truncated forms of AP-Sp35 were tested for binding. Both the LRR domain of Sp35 (amino acids 34-417 of SEQ ID NO:2) (AP-Sp35-LRR) and the extracellular domain of Sp35 (amino acids 34-532 of SEQ ID NO:2) (AP-Sp35) bound to ErbB2 expressed in CHO cells. […] FIGS. 17B and 17C.

[4] = test system: A2B5+ oligodendrocytes; assay: Differentiation of A2B5+ oligodendrocytes treated with Sp35-Fc (O4 staining); format: cell-based, rat; conditions: increasing concentrations versus control-Fc, 48 h, FIG. 8
Experimental: Enriched populations of oligodendrocytes were grown from female Long Evans P2 rats as described by Conn, Meth. Neurosci. 2:1-4 (Academic Press; 1990) with modifications as follows. Briefly, the forebrain was dissected and placed in Hank's buffered salt solution (IBSS; Invitrogen). The tissue was cut into 1-mm fragments and was incubated at 37° C. for 15 min in 0.01% trypsin and 10 μg/ml DNase. Dissociated cells were plated on poly-L-lysine-coated T75 tissue culture flasks and were grown at 37° C. for 10 d in DMEM medium with 20% fetal calf serum (Invitrogen). Oligodendrocyte precursors (A2B5^+) were collected by shaking the flask overnight at 200 rpm at 37° C., resulting in a 95% pure population. Cultures were maintained in high-glucose Dulbecco's modified Eagle's medium (DMEM with FGF/PDGF (10 ng/ml; Peprotech) for 1 week. Removal of FGF/PDGF allowed A2B5+ cells to differentiate into O4^+ premyelinating oligodendrocytes after 3-7 d, and to differentiate into O4^+ and MBP^+ mature oligodendrocytes after 7-10 d. These differentiation states are readily apparent from changes in morphology: AB5^+ cells are bipolar in shape, O4^+ premyelinating oligodendrocytes have longer and more branched processes and MBP^+ mature oligodendrocytes contain myelin sheet structures between processes. […]

[5] = test system: mature oligodendrocytes; assay: Mature oligodendrocyte survival and MBP expression; format: cell-based, rat
Experimental: Mature oligodendrocytes have a half-life in vitro of about 48 to 72 hours, with cells typically undergoing apoptosis after 72 hours. […] MBP expression was monitored as a marker for mature ologodendrocytes.

[6] = test system: Caspase-3; assay: Caspase-3 activation in differentiated PC12 cells after NGF withdrawal (Caspase 3/7 Glo); format: cell-based; conditions: 18 hours after removal of NGF
Experimental: PC 12 cells (Neuroscreen) were differentiated in RPMI-1640 medium supplemented with 5% fetal bovine serum, 10% horse serum, 2 mM glutamine, 100 U/ml penicillin and […] streptomycin containing 200 ng/ml NGF for 7 days. For experiments, the culture media was replaced with NGF-free culture media containing Sp35-Fc, human IgG as a negative control (0.1-10 μM), or zVAD as a positive control (0.1 μM). 18 hours after NGF withdrawal, activated Caspase-3 was quantified using the Caspase 3/7 Glo kit (Promega) according to the manufacturer's instructions. 42 hours after NGF withdrawal, apoptotic cell death was quantified using a cell death detection ELISA kit (Roche) according to the manufacturer's instructions.

[7] = test system: differentiated PC12 cells; assay: Apoptotic cell death in differentiated PC12 cells after NGF withdrawal (cell death ELISA / TUNEL); format: cell-based

B1: Sp35-Fc: extra-cellular portion of human Sp35 (residues 1-532) fused to the hinge and Fc region of human IgG1 (protein)
chain: TGCPPRCECSAQDRAVLCHRKRFVAVPEGIPTETRLLDLGKNRIKTLNQDEFASFPHLEELELNENIVSAVEPGAFNNLFNLRTLGLRSNRLKLIPLGVFTGLSNLTKLDISENKIVILLDYMFQDLYNLKSLEVGDNDLVYISHRAFSGLNSLEQLTLEKCNLTSIPTEALSHLHGLIVLRLRHLNINAIRDYSFKRLYRLKVLEISHWPYLDTMTPNCLYGLNLTSLSITHCNLTAVPYLAVRHLVYLRFLNLSYNPISTIEGSMLHELLRLQEIQLVGGQLAVVEPYAFRGLNYLRVLNVSGNQLTTLEESVFHSVGNLETLILDSNPLACDCRLLWVFRRRWRLNFNRQQPTCATPEFVQGKEFKDFPDVLLPNYFTCRRARIRDRKAQQVFVDEGHTVQFVCRADGDPPPAILWLSPRKHLVSAKSNGRLTVFPDGTLEVRYAQVQDNGTYLCIAANAGGNDSMPAHLHVRSYSPDWPHQPNKTFAFISNQPGE
modifications: left off: a dimerising Fc or GST
notes: extra-cellular portion of human Sp35 (residues 1-532) fused to the hinge and Fc region of human IgG1
- number of activated-Caspase-3-positive neurons and oligodendrocytes versus controls ([1]; 3 days after SCI, 0.25 μl/h of 25 μM intrathecal): significantly smaller
- neuron and oligodendrocyte survival in tissue surrounding the lesion site versus controls ([1]; four weeks after SCI, anti-βIII-tubulin and anti-O4 staining): more neurons and oligodendrocytes survived
- reduction in RhoA-GTP [2]: threefold reduction
- AP-Sp35 binding to ErbB2-expressing cells after pre-incubation [3]: blocked
- differentiation of A2B5+ cells into O4+ cells [4]: promoted differentiation
- survival rate for mature oligodendrocytes ([5]; 10 μg/ml for 5 days, cell viability staining, versus control-Fc): significantly increased survival rate
- increase in MBP protein expression ([5]; cell staining and Western blot with anti-MBP antibody, versus control-Fc treated cells): approximately 3 fold
- Caspase-3 activation ([6]; 0.1 μM): reduced Caspase-3 activation
- Caspase-3 activation compared with zVAD (0.1 μM) ([6]; 1 or 10 μM, dose-dependent, FIG. 14): as effective as a neuroprotective dose of the caspase inhibitor zVAD
- cells undergoing apoptosis (TUNEL assay) ([7]; 18 hours after NGF withdrawal, versus control, FIG. 13 legend): fewer cells undergoing apoptosis
- cell death (TUNEL ELISA) ([7]; 42 hours after withdrawal of NGF, FIG. 13): significantly reduced cell death

— US20090175872A1, “Treatment of Conditions Involving Demyelination” (BIOGEN Idec MA Inc., priority 2005, published 2009)
